In patent US20240218060A1 (Hoffmann-La Roche, published 2024):

Target: T1, human neonatal Fc-receptor (FcRn) (human, UniProt P55899 24-297; P61769 21-119)
T1 construct: also called human FcRn; huFcRn
Assay: SPR (BIAcore T100), FcRn immobilised on a CM5 chip, 200 nM antibody, PBS 0.05% Tween20 pH 6.0
Procedure: The binding properties of wild-type antibody and the mutants to FcRn were analyzed by surface plasmon resonance (SPR) technology using a BIAcore T100 instrument (BIAcore AB, Uppsala, Sweden). […] In the current assay, the FcRn receptor was immobilized onto a BIAcore CM5-biosensor chip (GE Healthcare Bioscience, Uppsala, Sweden) via amine coupling to a level of 400 Response units (RU). The assay was carried out at room temperature with PBS, 0.05% Tween20 pH 6.0 (GE Healthcare Bioscience) as running and dilution buffer. 200 nM of samples were injected at a flow rate of 50 μL/min at room temperature. Association time was 180 sec., dissociation phase took 360 sec. Regeneration of the chip surface was reached by a short injection of HBS-P, pH 8.0. Evaluation of SPR-data was performed by comparison of the biological response signal height at 180 sec. after injection and at 300 sec. after injection. The corresponding parameters are the RU max level (180 sec. after injection) and late stability (300 sec. after end of injection).

T1 sequence (P55899 24-297 limits assumed, chain 1 of 2): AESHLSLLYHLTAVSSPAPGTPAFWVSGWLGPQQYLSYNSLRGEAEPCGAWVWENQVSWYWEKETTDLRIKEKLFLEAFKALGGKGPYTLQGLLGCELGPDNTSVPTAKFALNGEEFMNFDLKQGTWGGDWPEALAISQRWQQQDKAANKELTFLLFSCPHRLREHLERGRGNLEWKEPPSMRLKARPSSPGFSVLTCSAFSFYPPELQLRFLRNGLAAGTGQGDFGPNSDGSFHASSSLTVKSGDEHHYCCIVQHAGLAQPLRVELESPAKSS
T1 sequence (P61769 21-119 limits assumed, chain 2 of 2): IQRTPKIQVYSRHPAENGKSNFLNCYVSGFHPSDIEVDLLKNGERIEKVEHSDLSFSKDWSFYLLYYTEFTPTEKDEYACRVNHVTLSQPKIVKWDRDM

B1: YTE-mutant of anti-IGF-1R antibody (antibody, human IgG1, kappa)
light: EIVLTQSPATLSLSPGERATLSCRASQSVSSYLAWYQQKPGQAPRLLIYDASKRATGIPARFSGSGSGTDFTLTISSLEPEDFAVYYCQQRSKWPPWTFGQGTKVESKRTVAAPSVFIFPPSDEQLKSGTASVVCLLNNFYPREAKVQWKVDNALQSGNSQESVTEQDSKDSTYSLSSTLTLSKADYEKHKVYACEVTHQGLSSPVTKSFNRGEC
heavy: QVELVESGGGVVQPGRSQRLSCAASGFTFSSYGMHWVRQAPGKGLEWVAIIWFDGSSTYYADSVRGRFTISRDNSKNTLYLQMNSLRAEDTAVYFCARELGRRYFDLWGRGTLVSVSSASTKGPSVFPLAPSSKSTSGGTAALGCLVKDYFPEPVTVSWNSGALTSGVHTFPAVLQSSGLYSLSSVVTVPSSSLGTQTYICNVNHKPSNTKVDKKVEPKSCDKTHTCPPCPAPELLGGPSVFLFPPKPKDTLYITREPEVTCVVVDVSHEDPEVKFNWYVDGVEVHNAKTKPREEQYNSTYRVVSVLTVLHQDWLNGKEYKCKVSNKALPAPIEKTISKAKGQPREPQVYTLPPSRDELTKNQVSLTCLVKGFYPSDIAVEWESNGQPENNYKTTPPVLDSDGSFFLYSKLTVDKSRWQQGNVFSCSVMHEALHNHYTQKSLSLSPG
notes: also called <IGF-1R> IgG1 with M252Y, S254T, T256E; anti-IGF-1R IgG1 with YTE mutation
- binding result: binds
